One may read the Kd as the free concentration of one partner at which half of the binding sites on the other are occupied at equilibrium, for simple one-to-one binding.

This note sets out measurements from US20190127478A1 (published 2019).

Some targets named below: FcRn; FcgRIIIaV; FcgRIa.
Common to all, as to experiment: Octet RED 96
(In general: Biolayer interferometry detects binding as a change in optical thickness at a sensor tip.)

B1: BCD-100 IgG1* (antibody)
heavy: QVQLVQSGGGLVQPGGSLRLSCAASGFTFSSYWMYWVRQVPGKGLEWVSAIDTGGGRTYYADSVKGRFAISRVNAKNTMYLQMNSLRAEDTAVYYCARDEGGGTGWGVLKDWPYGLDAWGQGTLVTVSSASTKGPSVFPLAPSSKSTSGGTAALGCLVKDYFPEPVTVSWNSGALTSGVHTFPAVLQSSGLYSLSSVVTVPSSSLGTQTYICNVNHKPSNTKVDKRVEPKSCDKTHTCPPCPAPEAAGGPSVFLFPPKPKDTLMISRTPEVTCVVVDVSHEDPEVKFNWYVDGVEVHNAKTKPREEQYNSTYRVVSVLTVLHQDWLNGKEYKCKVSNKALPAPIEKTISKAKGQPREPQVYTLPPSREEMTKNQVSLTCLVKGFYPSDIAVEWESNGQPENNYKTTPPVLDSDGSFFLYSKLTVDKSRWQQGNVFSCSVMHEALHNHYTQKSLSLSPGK
light: QPVLTQPLSVSVALGQTARITCGGNNIGSKNVHWYQQKPGQAPVLVIYRDSNRPSGIPERFSGSNSGNTATLTISRAQAGDEADYYCQVWDSSTAVFGTGTKLTVLQRTVAAPSVFIFPPSDEQLKSGTASVVCLLNNFYPREAKVQWKVDNALQSGNSQESVTEQDSKDSTYSLSSTLTLSKADYEKHKVYACEVTHQGLSSPVTKSFNRGEC
Consider B1, for which the Kd with FcRn was determined as 9.6 nM; with FcgRIIIaV it was 740 nM; with FcgRIa it was 750 nM.
